Data published in IntAct's records for PubMed 12907709.

B1: DNA-directed RNA polymerase II subunit rpb7 (Schizosaccharomyces pombe (strain ATCC 38366 / 972)), O14459 (parent)
chain: MPFFLKELSLTISLHPSYFGPRMQDYLKAKLLADVEGTCSGQYGYIICVLDSNTIDIDKGRVVPGQGFAEFEVKYRAVLWRPFRGEVVDAIVTTVNKMGFFANIGPLNVFVSSHLVPPDMKFDPTANPPNYSGEDQVIEKGSNVRLKIVGTRTDATEIFAIATMKEDYLGVL
partner: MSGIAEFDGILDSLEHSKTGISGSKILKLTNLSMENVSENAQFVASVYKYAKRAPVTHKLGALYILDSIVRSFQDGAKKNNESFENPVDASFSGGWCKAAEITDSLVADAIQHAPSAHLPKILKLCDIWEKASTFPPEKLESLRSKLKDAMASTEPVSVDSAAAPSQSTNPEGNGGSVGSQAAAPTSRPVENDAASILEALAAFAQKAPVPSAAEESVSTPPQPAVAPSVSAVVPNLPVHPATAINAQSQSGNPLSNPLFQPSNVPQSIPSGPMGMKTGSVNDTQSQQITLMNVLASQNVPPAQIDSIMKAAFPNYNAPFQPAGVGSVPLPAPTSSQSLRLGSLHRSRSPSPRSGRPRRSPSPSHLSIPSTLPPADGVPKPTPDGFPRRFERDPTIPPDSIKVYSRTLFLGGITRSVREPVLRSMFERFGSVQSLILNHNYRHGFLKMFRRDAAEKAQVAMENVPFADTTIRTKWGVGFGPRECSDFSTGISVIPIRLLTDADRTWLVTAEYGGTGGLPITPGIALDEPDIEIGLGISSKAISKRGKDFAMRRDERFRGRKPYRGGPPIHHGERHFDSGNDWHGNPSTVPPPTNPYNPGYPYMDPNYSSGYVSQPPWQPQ

Variants of: B1
Settings: with seb1_schpo seb1, Q9UTE3

effect of a mutation on the interaction	Variant
disrupting interaction	MPFFLKELSLTISLHPSYFGPRMQDYLKAKLLADVEGTCSGQYGYIICVLDSNTIDIDKGRVVPGQGFAEFEVKYRAVLWRPFRGEVVDAIVTTVNKMGFFANIGPLNVFVSSHLVPPDMKFDPTANPPNYSGEDQVIEKGSNVRLKIVGTRTDATEIFAIATMKRAYLGVL
